Our source for the Kd and IC50 values is the Immune Epitope Database (IEDB).

In test [1] the target is HLA-B*58:01. Description: IEDB peptide-MHC binding, purified MHC/competitive/radioactivity; filed as Kd, often an IC50 or EC50 that approximates it; ≥ and ≤ were set here for values at or beyond the usual limits of such assays.
Test [2] has as its target HLA-B*57:01. The test is described as above.
Test [3] concerns the target HLA-A*03:01. Put plainly: IEDB peptide-MHC binding, purified MHC/direct/fluorescence; filed as Kd, often an IC50 or EC50 that approximates it; ≥ and ≤ were set here for values at or beyond the usual limits of such assays.
For test [4], the target named is HLA-A*02:12. The description is as above.
In test [5] the target is HLA-A*01:01. The description is as above. The conditions noted are these: source organism: Reston ebolavirus - Reston.
The target of test [6] is HLA-A*02:01. The test is described as above.
Test [7] has as its target HLA-B*39:01. Description: IEDB peptide-MHC binding, purified MHC/competitive/fluorescence; filed as Kd, often an IC50 or EC50 that approximates it; ≥ and ≤ were set here for values at or beyond the usual limits of such assays.
The target of test [8] is HLA-B*46:01. The description is as above.
In test [9] the target is HLA-B*27:03. Described as above.
For test [10], the target named is HLA-A*26:01. The description is as above.
In test [11] the target is HLA-B*18:01. Described as above.
Test [12] concerns the target HLA-B*57:01. Described as above.
For test [13], the target named is HLA-B*51:01. Described as above.
In test [14] the target is HLA-A*32:01. Put plainly: IEDB peptide-MHC binding, purified MHC/competitive/radioactivity; filed as Kd, often an IC50 or EC50 that approximates it; ≥ and ≤ were set here for values at or beyond the usual limits of such assays.
The target in test [15] is HLA-B*53:01. The test is described as above.
The target of test [16] is HLA-A*02:03. Described as above. Particulars: source organism: Dengue virus 1 Brazil/97-11/1997.
The target in test [17] is HLA-B*08:01. The test is described as above. The conditions noted are these: source organism: Dengue virus 1 Brazil/97-11/1997.
For test [18], the target named is HLA-A*02:17. Described as above.
Test [19] has as its target HLA-A*68:02. The description is as above. The conditions noted are these: source organism: Dengue virus 1 Brazil/97-11/1997.
Test [20] deals with HLA-A*02:01. The test is described as above.
Test [21] deals with HLA-A*02:06. Described as above.
Test [22] has as its target HLA-B*35:01. The description is as above.
Test [23] has as its target HLA-B*51:01. Described as above. The conditions noted are these: source organism: Dengue virus 4 Philippines/H241/1956.
The target of test [24] is HLA-B*15:01. Description: IEDB peptide-MHC binding, purified MHC/competitive/fluorescence; ≥ and ≤ were set here for values at or beyond the usual limits of such assays.
Test [25] deals with HLA-A*11:01. The description is as above. The conditions noted are these: source organism: Zaire ebolavirus.
Test [26] has as its target HLA-A*02:01. Described as above. The conditions noted are these: source organism: Vaccinia virus.
Test [27] has as its target HLA-A*24:03. Put plainly: IEDB peptide-MHC binding, purified MHC/direct/fluorescence; filed as Kd, often an IC50 or EC50 that approximates it; ≥ and ≤ were set here for values at or beyond the usual limits of such assays.
For test [28], the target named is HLA-A*29:02. The description is as above. The conditions noted are these: source organism: Zaire ebolavirus.
The target in test [29] is HLA-B*15:01. Put plainly: IEDB peptide-MHC binding, purified MHC/competitive/fluorescence; filed as Kd, often an IC50 or EC50 that approximates it; ≥ and ≤ were set here for values at or beyond the usual limits of such assays. The conditions noted are these: source organism: Zaire ebolavirus.
The target in test [30] is HLA-A*69:01. The description is as above.
Test [31] addresses HLA-B*15:17. Described as above.
The target of test [32] is HLA-B*15:01. Put plainly: IEDB peptide-MHC binding, purified MHC/competitive/radioactivity; filed as Kd, often an IC50 or EC50 that approximates it; ≥ and ≤ were set here for values at or beyond the usual limits of such assays. Particulars: source organism: Dengue virus 1 Brazil/97-11/1997.
The target in test [33] is HLA-A*23:01. The description is as above. Particulars: source organism: Dengue virus 1 Brazil/97-11/1997.
Test [34] has as its target HLA-A*24:02. Described as above. The conditions noted are these: source organism: Dengue virus 1 Brazil/97-11/1997.
The target in test [35] is HLA-A*02:19. Put plainly: IEDB peptide-MHC binding, purified MHC/direct/fluorescence; filed as Kd, often an IC50 or EC50 that approximates it; ≥ and ≤ were set here for values at or beyond the usual limits of such assays. The conditions noted are these: source organism: Araucaria virus.
The target of test [36] is HLA-A*02:03. The test is described as above. The conditions noted are these: source organism: Araucaria virus.
Test [37] concerns the target HLA-A*68:02. Described as above. The conditions noted are these: source organism: Araucaria virus.
The target in test [38] is HLA-A*24:02. Put plainly: IEDB peptide-MHC binding, purified MHC/competitive/fluorescence; ≥ and ≤ were set here for values at or beyond the usual limits of such assays. Particulars: source organism: Zaire ebolavirus.
The mark [39] stands for this setting: source organism: Dengue virus 3 Singapore/8120/1995.
The mark [40] stands for this setting: source organism: Zaire ebolavirus.
Setting [41] is: source organism: Dengue virus 3 Martinique/1243/1999.
The mark [42] stands for this setting: source organism: Dengue virus 2 Jamaica/1409/1983.
Where [43] appears, read: source organism: Dengue virus 4 Philippines/H241/1956.
Where [44] appears, read: source organism: Dengue virus 1 Brazil/97-11/1997.
[45] abbreviates: source organism: Dengue virus 1 Singapore/S275/1990.
Setting [46] is: source organism: Dengue virus 4 Dominica/814669/1981.
Setting [47] is: source organism: Araucaria virus.
[48] abbreviates: source organism: Hantavirus HPR/02-73.

The term Kd denotes the equilibrium constant for the complex coming apart. Broadly, the IC50 is the concentration that gives 50% inhibition. A high value points to lower potency.

Consider HSSTWHYDDE, for which the Kd in test [1] (setting [39]) is 866 nM; in test [2] (setting [39]), 6580 nM.
In the case of MVAKYDLLV, the Kd in [3] (setting [40]) is not below 20000 nM; in [4] (setting [40]), not below 20000 nM; in test [5], not below 20000 nM; in [6] (source organism: Reston ebolavirus - Reston), 14.1 nM; in [7] (setting [40]) it was not below 20000 nM; in [8] (setting [40]), not below 20000 nM. Besides, the Kd in [9] (setting [40]), in [10] (setting [40]), in test [11] (setting [40]), in test [12] (setting [40]) and in [13] (setting [40]) was not below 20000 nM throughout.
As for ATGPITTLW, the Kd in test [14] (setting [41]) worked out at 221 nM; in test [1] (setting [41]), 4.89 nM; in test [2] (setting [41]), 12.1 nM.
Regarding MKITAEWLW, the figures for the Kd in test [15] (setting [42]), in [1] (setting [42]) and in test [2] (setting [42]) were 1090 nM, 5.43 nM and 43.3 nM, respectively.
Turning to PSSVAARGYI, the values for the Kd in test [1] (setting [43]) and in test [2] (setting [43]) were 512 nM and 16400 nM, respectively.
Turning to MLMTGTLAV, the Kd in test [16] turned out to be 0.47 nM; in test [14] (setting [44]) it was 502 nM; in [17] it was 22.5 nM; in test [18] (setting [45]) it was 753 nM; in [19], 9.71 nM; in test [20] (setting [45]), 19.7 nM. Further, in test [21] (setting [44]), the Kd was 9.69 nM.
In the case of KTKLNDWDF, the Kd in test [2] (setting [41]) was determined as 50.7 nM.
Turning to FSMGLLCLTL, the Kd was 3070 nM in [22] (setting [43]); 333 nM in test [15] (setting [43]); 84 nM in test [18] (setting [43]); 8990 nM in test [20] (setting [43]); 8.49 nM in [21] (setting [43]); not below 69600 nM in [23].
For the sequence TSSQQKADW, the Kd in [1] (setting [42]) was determined as 186 nM; in [2] (setting [42]), 29.1 nM.
Take SQKGQHIEG: the values for the IC50 in [24] (setting [40]) and in [25] were 46500 nM and not below 186000 nM, respectively.
Regarding GSSIGQMFET, the Kd in test [1] (setting [42]) amounted to 1510 nM; in [2] (setting [42]), 1080 nM.
Consider PMMIQTRAA, for which the IC50 in test [24] (source organism: Vaccinia virus) is not below 298000 nM; in [26], 18200 nM.
VSAGESSIL: the half-maximal inhibitory concentration (IC50) in test [24] (source organism: Vaccinia virus Copenhagen) is not below 87400 nM.
For VLSDLCNFL, the Kd was not below 20000 nM in test [27] (setting [40]); not below 20000 nM in [28]; not below 20000 nM in [3] (setting [40]); 5 nM in test [6] (source organism: Ebola virus - Gabon (1994-1997)); not below 20000 nM in test [29]; not below 20000 nM in test [7] (setting [40]). Further, the Kd in test [30] (setting [40]), in test [8] (setting [40]), in [9] (setting [40]), in test [10] (setting [40]), in test [11] (setting [40]) and in test [12] (setting [40]) was not below 20000 nM in each case. The Kd in test [31] (setting [40]) and in [13] (setting [40]) was not below 20000 nM each time.
GSSIGKMFES: the Kd in test [1] (setting [46]) amounted to 251 nM; in [2] (setting [46]), 1830 nM.
For MLMTGTLAVF, the Kd in test [22] (setting [44]) is 342 nM; in [32], 1.24 nM; in test [33], 55 nM; in [18] (setting [45]), 32.3 nM; in [34], 296 nM; in test [20] (setting [45]), 75.1 nM.
As to GFAIPIILK, the Kd in test [35] was not below 20000 nM; in [36], not below 20000 nM; in test [27] (setting [47]) it was not below 20000 nM; in [3] (source organism: Juquitiba virus) it was 6000 nM; in [4] (setting [47]), not below 20000 nM; in [37], not below 20000 nM. Also, the Kd in test [7] (setting [48]), in test [30] (setting [48]), in test [8] (setting [48]), in [9] (setting [48]), in [10] (setting [48]) and in test [11] (setting [48]) was not below 20000 nM throughout. The Kd in test [12] (setting [48]), in [31] (setting [48]) and in [13] (setting [48]) was not below 20000 nM each time.
Regarding GTSLLFLNDM, the Kd in test [2] (setting [46]) is not below 22100 nM.
Turning to AFHKEGAFF, the 50% inhibitory concentration (IC50) is 1880 nM in [24] (setting [40]) and 19.9 nM in [38].
